Measured values: patent US20230226151A1

Target: Mouse FGFR4/β-klotho complex co-expressed in L6 cells (mouse) (UniProt Q03142)
Test: cell-based or functional assay

Sequence of Mouse FGFR4/β-klotho complex co-expressed in L6 cells (mouse) (Q03142 17-799, chain 1 of 2): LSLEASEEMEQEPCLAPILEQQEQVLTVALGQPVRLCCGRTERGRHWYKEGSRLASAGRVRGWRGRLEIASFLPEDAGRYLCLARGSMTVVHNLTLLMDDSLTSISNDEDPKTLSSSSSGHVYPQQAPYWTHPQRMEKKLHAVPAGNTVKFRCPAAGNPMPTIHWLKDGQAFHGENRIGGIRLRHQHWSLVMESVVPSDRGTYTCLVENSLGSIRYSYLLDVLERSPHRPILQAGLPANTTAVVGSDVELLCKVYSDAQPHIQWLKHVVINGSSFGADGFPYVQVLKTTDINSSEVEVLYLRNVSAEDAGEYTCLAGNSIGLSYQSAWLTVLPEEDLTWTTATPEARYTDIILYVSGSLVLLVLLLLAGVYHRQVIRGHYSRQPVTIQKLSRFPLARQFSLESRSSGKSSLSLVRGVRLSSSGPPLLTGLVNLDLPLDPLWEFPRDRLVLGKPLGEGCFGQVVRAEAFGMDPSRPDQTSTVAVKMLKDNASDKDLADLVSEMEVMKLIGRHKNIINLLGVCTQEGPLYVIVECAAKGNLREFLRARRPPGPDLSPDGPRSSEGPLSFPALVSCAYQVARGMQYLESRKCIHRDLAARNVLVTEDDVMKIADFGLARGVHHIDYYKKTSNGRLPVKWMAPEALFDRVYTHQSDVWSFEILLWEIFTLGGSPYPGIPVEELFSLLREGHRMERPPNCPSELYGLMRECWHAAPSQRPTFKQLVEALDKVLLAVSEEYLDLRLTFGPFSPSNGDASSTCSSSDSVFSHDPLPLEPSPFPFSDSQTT
Sequence of Mouse FGFR4/β-klotho complex co-expressed in L6 cells (mouse) (Q99N32 whole entry, chain 2 of 2, further chain): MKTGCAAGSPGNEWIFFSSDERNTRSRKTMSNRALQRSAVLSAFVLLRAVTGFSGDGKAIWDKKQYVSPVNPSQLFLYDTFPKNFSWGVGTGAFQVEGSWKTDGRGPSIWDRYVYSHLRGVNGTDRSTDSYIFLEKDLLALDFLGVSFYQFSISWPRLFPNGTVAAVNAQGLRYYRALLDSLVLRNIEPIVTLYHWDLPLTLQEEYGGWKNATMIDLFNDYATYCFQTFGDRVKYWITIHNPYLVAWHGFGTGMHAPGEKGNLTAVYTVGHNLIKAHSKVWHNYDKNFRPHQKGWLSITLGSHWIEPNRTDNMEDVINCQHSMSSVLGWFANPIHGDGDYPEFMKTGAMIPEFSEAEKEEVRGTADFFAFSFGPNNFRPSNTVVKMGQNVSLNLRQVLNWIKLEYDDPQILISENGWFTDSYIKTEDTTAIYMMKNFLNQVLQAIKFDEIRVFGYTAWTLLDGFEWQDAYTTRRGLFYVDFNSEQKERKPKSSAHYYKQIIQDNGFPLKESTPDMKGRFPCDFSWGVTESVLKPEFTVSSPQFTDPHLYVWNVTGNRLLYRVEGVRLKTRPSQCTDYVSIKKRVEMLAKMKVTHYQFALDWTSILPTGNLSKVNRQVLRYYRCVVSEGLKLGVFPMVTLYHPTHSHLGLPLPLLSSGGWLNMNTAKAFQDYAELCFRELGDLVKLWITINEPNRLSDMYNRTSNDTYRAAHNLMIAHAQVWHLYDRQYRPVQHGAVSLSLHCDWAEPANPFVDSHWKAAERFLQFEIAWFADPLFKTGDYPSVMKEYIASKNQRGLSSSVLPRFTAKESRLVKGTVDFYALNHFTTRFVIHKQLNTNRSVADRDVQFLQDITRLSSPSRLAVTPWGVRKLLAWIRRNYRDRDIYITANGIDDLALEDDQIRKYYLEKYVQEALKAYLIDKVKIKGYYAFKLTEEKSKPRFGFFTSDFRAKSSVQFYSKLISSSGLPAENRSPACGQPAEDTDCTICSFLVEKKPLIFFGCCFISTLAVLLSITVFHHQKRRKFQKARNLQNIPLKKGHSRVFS

- EC50 (pM), ELK1 luciferase reporter in L6 cells: 52.5 pM
- Emax (fold potentiation), ELK1 luciferase reporter in L6 cells (fold potentiation): 1.82
Substance: FGF19 (wild type human fibroblast growth factor 19) (from UniProt O95750 23-216) (ligand)
